# B1: ILLQKPDSV (SEQ ID NO: 9) (peptide)
# peptide: ILLQKPDSV
# notes: source gene RGS5
# B2: TLLKTIIKV (SEQ ID NO: 66) (peptide)
# peptide: TLLKTIIKV
# notes: source gene CC2D2A
# B3: FTLEKNFVI (SEQ ID NO: 90) (peptide)
# peptide: FTLEKNFVI
# notes: source gene COL6A2
# B4: IIYGGSVTGA (SEQ ID NO: 65) (peptide)
# peptide: IIYGGSVTGA
# notes: source genes TPI1, TPI1P1
# B5: TLISELVQA (SEQ ID NO: 97) (peptide)
# peptide: TLISELVQA
# notes: source gene CUL7
# B6: VLADDHLIEV (SEQ ID NO: 76) (peptide)
# peptide: VLADDHLIEV
# notes: source genes PDZK1P2, PDZK1, PDZK1P1
# B7: FLLSLIDRL (SEQ ID NO: 7) (peptide)
# peptide: FLLSLIDRL
# notes: source gene EGLN3
# B8: GLASFKSFL (SEQ ID NO: 8) (peptide)
# peptide: GLASFKSFL
# notes: source gene RGS5
# B9: ILADLLPSL (SEQ ID NO: 69) (peptide)
# peptide: ILADLLPSL
# notes: source gene DHRS7B
# B10: GLFHKQVTV (SEQ ID NO: 74) (peptide)
# peptide: GLFHKQVTV
# notes: source gene PDZD2
# B11: FLFRDILEL (SEQ ID NO: 92) (peptide)
# peptide: FLFRDILEL
# notes: source gene DROSHA
# B12: YLMDEGAHL (SEQ ID NO: 84) (peptide)
# peptide: YLMDEGAHL
# notes: source gene UGDH
# B13: VLFELSKTV (SEQ ID NO: 6) (peptide)
# peptide: VLFELSKTV
# notes: source gene ATP11A
# B14: KLTDVGIATL (SEQ ID NO: 95) (peptide)
# peptide: KLTDVGIATL
# notes: source gene ALPK2
# B15: VLAGPAFLVQL (SEQ ID NO: 62) (peptide)
# peptide: VLAGPAFLVQL
# notes: source gene SLC47A1
# B16: SLLLAVTEV (SEQ ID NO: 89) (peptide)
# peptide: SLLLAVTEV
# notes: source gene JAG2
# B17: GLDGIPFTV (SEQ ID NO: 73) (peptide)
# peptide: GLDGIPFTV
# notes: source gene TRIP6
# B18: ALLDTVVQA (SEQ ID NO: 78) (peptide)
# peptide: ALLDTVVQA
# notes: source genes CACNA1I, CACNA1H
# B19: SLIKHKIML (SEQ ID NO: 77) (peptide)
# peptide: SLIKHKIML
# notes: source gene ATP6V1A
# B20: KLASMLETL (SEQ ID NO: 80) (peptide)
# peptide: KLASMLETL
# notes: source gene PRKCDBP
# B21: ALDGHLYAV (SEQ ID NO: 71) (peptide)
# peptide: ALDGHLYAV
# notes: source gene KBTBD11
# B22: GVMAGDIYSV (SEQ ID NO: 93) (peptide)
# peptide: GVMAGDIYSV
# notes: source gene PLIN2
# B23: SLLQATDFMSL (SEQ ID NO: 82) (peptide)
# peptide: SLLQATDFMSL
# notes: source gene THY1
# B24: KIPPVSPSI (SEQ ID NO: 98) (peptide)
# peptide: KIPPVSPSI
# notes: source gene ARRDC3
# B25: LLDVLAPLV (SEQ ID NO: 67) (peptide)
# peptide: LLDVLAPLV
# notes: source gene COL18A1
# B26: TLAETLVNL (SEQ ID NO: 96) (peptide)
# peptide: TLAETLVNL
# notes: source gene ANKRD52
# B27: KLNVAPLAV (SEQ ID NO: 100) (peptide)
# peptide: KLNVAPLAV
# notes: source genes MZT2A, MZT2B
# B28: ILHHKVYDL (SEQ ID NO: 94) (peptide)
# peptide: ILHHKVYDL
# notes: source gene CYB5A
# B29: FLIKSINLV (SEQ ID NO: 75) (peptide)
# peptide: FLIKSINLV
# notes: source gene KBTBD3
# B30: SLLPALPKL (SEQ ID NO: 81) (peptide)
# peptide: SLLPALPKL
# notes: source gene LRP2
# B31: GLLQGKLALL (SEQ ID NO: 86) (peptide)
# peptide: GLLQGKLALL
# notes: source gene NQO2
# B32: MLLSSLVSL (SEQ ID NO: 91) (peptide)
# peptide: MLLSSLVSL
# notes: source gene VKORC1
# B33: YSLEKVFGI (SEQ ID NO: 72) (peptide)
# peptide: YSLEKVFGI
# notes: source gene MAGED2
# B34: FVMSEIRTV (SEQ ID NO: 85) (peptide)
# peptide: FVMSEIRTV
# notes: source gene ZNF618
# B35: IQWSIVPEV (SEQ ID NO: 83) (peptide)
# peptide: IQWSIVPEV
# notes: source gene GRAMD4
# B36: GLAPHLEQI (SEQ ID NO: 99) (peptide)
# peptide: GLAPHLEQI
# notes: source gene IPO4
# B37: LLFDVHTTL (SEQ ID NO: 102) (peptide)
# peptide: LLFDVHTTL
# notes: source gene C5orf42
# B38: YVLTQPPSV (SEQ ID NO: 68) (peptide)
# peptide: YVLTQPPSV
# notes: source genes IGLV3-21, IGLV2-14, IGLJ3, IGLC1, IGLC2
# B39: GLIEDHFDVTV (SEQ ID NO: 63) (peptide)
# peptide: GLIEDHFDVTV
# notes: source gene ERAP1
# B40: SLMGILLRI (SEQ ID NO: 61) (peptide)
# peptide: SLMGILLRI
# notes: source gene CARD8
# B41: LLAASVALA (SEQ ID NO: 64) (peptide)
# peptide: LLAASVALA
# notes: source gene NPTX2
# B42: ALADIVWRA (SEQ ID NO: 79) (peptide)
# peptide: ALADIVWRA
# notes: source gene FAM188B
# B43: HIYDKAFITV (SEQ ID NO: 101) (peptide)
# peptide: HIYDKAFITV
# notes: source gene FLT1
# B44: TLAELHISL (SEQ ID NO: 88) (peptide)
# peptide: TLAELHISL
# notes: source gene NLRC5
# Target: T1, HLA-A*02:01 (human)
# T1 construct: MHC monomers first loaded with a UV-sensitive peptide (not identified) that is cleaved by UV light and exchanged for the test peptide; captured on streptavidin plates, detected with anti-β2m; also called peptide-receptive MHC molecules; MHC class I
# Experiment: UV-ligand exchange + anti-b2m ELISA; peptide exchange yield grade (+ >=10%, ++ >=20%, +++ >=50, ++++ >=75%)
# Description: Candidate peptides for T cell based therapies according to the present invention were further tested for their MHC binding capacity (affinity). The individual peptide-MHC complexes were produced by UV-ligand exchange, where a UV-sensitive peptide is cleaved upon UV-irradiation, and exchanged with the peptide of interest as analyzed. Only peptide candidates that can effectively bind and stabilize the peptide-receptive MHC molecules prevent dissociation of the MHC complexes. To determine the yield of the exchange reaction, an ELISA was performed based on the detection of the light chain (β2m) of stabilized MHC complexes. The assay was performed as generally described in Rodenko et al. (Rodenko et al., 2006).
# 96 well MAXISorp plates (NUNC) were coated over night with 2 ug/ml streptavidin in PBS at room temperature, washed 4× and blocked for 1h at 37° C. in 2% BSA containing blocking buffer. Refolded HLA-A*02:01/MLA-001 monomers served as standards, covering the range of 15-500 ng/ml. Peptide-MHC monomers of the UV-exchange reaction were diluted 100 fold in blocking buffer. Samples were incubated for 1 h at 37° C., washed four times, incubated with 2 ug/ml HRP conjugated anti-β2m for 1h at 37° C., washed again and detected with TMB solution that is stopped with […]. Absorption was measured at 450 nm. Candidate peptides that show a high exchange yield (preferably higher than 50%, most preferred higher than 75%) are generally preferred for a generation and production of antibodies or fragments thereof, and/or T cell receptors or fragments thereof, as they show sufficient avidity to the MHC molecules and prevent dissociation of the MHC complexes.
row,peptide exchange yield [%],Binder
1,20 to 50,B1
2,20 to 50,B2
3,20 to 50,B3
4,20 to 50,B4
5,20 to 50,B5
6,20 to 50,B6
7,50 to 75,B7
8,20 to 50,B8
9,20 to 50,B9
10,50 to 75,B10
11,50 to 75,B11
12,20 to 50,B12
13,50 to 75,B13
14,20 to 50,B14
15,50 to 75,B15
16,20 to 50,B16
17,50 to 75,B17
18,20 to 50,B18
19,20 to 50,B19
20,50 to 75,B20
21,50 to 75,B21
22,≥ 75,B22

row,peptide exchange yield [%],Binder
1,50 to 75,B23
2,20 to 50,B24
3,20 to 50,B25
4,50 to 75,B26
5,20 to 50,B27
6,20 to 50,B28
7,50 to 75,B29
8,20 to 50,B30
9,20 to 50,B31
10,20 to 50,B32
11,20 to 50,B33
12,50 to 75,B34
13,50 to 75,B35
14,20 to 50,B36
15,50 to 75,B37
16,20 to 50,B38
17,20 to 50,B39
18,20 to 50,B40
19,20 to 50,B41
20,50 to 75,B42
21,20 to 50,B43
22,20 to 50,B44

# — patent publication US20160287687A1 (IMMATICS BIOTECHNOLOGIES, published 2016)
